{"source": "patent US20040242853A1", "key": {"[1]": {"target": "human GLP-1 receptor (CHO cells stably transfected with the human GLP-1 receptor) (human) (UniProt P43220)", "test": "displacement of 125I-GLP-1 from intact CHO/GLP-1R cells (Example 9)"}, "[2]": {"system": "GLP-1 6-aminohexanoic acid8"}, "[3]": {"target": "T1, human GLP-1 receptor (CHO cells stably transfected with the human GLP-1 receptor) (human), P43220", "T1 chain": "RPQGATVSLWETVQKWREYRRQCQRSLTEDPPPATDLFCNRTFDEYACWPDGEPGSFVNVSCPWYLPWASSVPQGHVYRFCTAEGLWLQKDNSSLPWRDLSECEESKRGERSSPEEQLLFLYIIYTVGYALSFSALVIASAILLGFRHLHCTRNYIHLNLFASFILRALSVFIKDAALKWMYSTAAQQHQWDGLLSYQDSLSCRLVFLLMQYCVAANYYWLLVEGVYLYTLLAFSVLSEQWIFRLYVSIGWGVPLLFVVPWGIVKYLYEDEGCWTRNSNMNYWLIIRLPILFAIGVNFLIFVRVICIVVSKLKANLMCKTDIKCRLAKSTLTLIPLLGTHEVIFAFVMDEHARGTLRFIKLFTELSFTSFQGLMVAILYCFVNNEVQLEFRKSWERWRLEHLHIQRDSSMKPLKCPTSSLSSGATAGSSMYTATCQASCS", "test": "cell-based or functional assay"}, "[4]": {"target": "T1, human GLP-1 receptor (CHO cells stably …)", "test": "displacement of 125I-GLP-1 from intact CHO/GLP-1R cells (Example 9)"}}, "note": "Square brackets hold non-standard residues; d marks the D form. Ends that are not written are not given here. Ahx = NCCCCCC(=O)O"}
{"molecule": "Exendin (1-35) (peptide; other documents disagree on this pair)", "values": [{"measurement": "IC50", "setting": "[1]", "value": 7, "unit": "nM"}]}
{"molecule": "recombinant DPPIV (dipeptidyl peptidase IV)", "values": [{"measurement": "N-terminal truncated product measured by MALDI-TOF", "setting": "GLP-1 (7-36) amide", "value": "caused a considerable increase in the amount of N-terminal truncated product (Mr=3089 gmol-1) as measured by MALDI"}, {"measurement": "N-terminal truncated product measured by MALDI-TOF", "setting": "[2]", "value": "In contrast GLP-1 Aha^8 (2 µM) appeared resistant to either treatment"}]}
{"molecule": "H[Ahx]AEGTFTSDVSSYLEGQAAKEFIAWLVKGR (ends and bridges not checked)", "note": "[GLP-1 6-aminohexanoic acid8]", "values": [{"measurement": "intracellular cAMP production in CHO/GLP-1R cells (fold above basal)", "setting": "[3]", "value": 4}]}
{"molecule": "HGEGTFTSDVSSYLEGQAAKEFIAWLVKGRPSSGAPPPS (modifications not checked)", "note": "[GLP-1 Gly8(7-36) Exendin(31-39)]", "values": [{"measurement": "IC50", "setting": "[4]", "value": 74, "unit": "nM"}]}
